This note sets out measurements from publication PMC9795039, “Kindlin2 enables EphB/ephrinB bi-directional signaling to support vascular development” (Life Science Alliance, 2022).

To fix the notation:
B1: his-tagged human full-length kindlin2 [human] / his/Avi-tagged cytoplasmic tail of ephrinB2 WT [modified: biotinylated; biotinylated] [not stated] (parent complex)
chain 1: MALDGIRMPDGCYADGTWELSVHVTDLNRDVTLRVTGEVHIGGVMLKLVEKLDVKKDWSDHALWWEKKRTWLLKTHWTLDKYGIQADAKLQFTPQHKLLRLQLPNMKYVKVKVNFSDRVFKAVSDICKTFNIRHPEELSLLKKPRDPTKKKKKKLDDQSEDEALELEGPLITPGSGSIYSSPGLYSKTMTPTYDAHDGSPLSPTSAWFGDSALSEGNPGILAVSQPITSPEILAKMFKPQALLDKAKINQGWLDSSRSLMEQDVKENEALLLRFKYYSFFDLNPKYDAIRINQLYEQAKWAILLEEIECTEEEMMMFAALQYHINKLSIMTSENHLNNSDKEVDEVDAALSDLEITLEGGKTSTILGDITSIPELADYIKVFKPKKLTLKGYKQYWCTFKDTSISCYKSKEESSGTPAHQMNLRGCEVTPDVNISGQKFNIKLLIPVAEGMNEIWLRCDNEKQYAHWMAACRLASKGKTMADSSYNLEVQNILSFLKMQHLNPDPQLIPEQITTDITPECLVSPRYLKKYKNKQITARILEAHQNVAQMSLIEAKMRFIQAWQSLPEFGITHFIARFQGGKKEELIGIAYNRLIRMDASTGDAIKTWRFSNMKQWNVNWEIKMVTVEFADEVRLSFICTEVDCKVVHEFIGGYIFLSTRAKDQNESLDEEMFYKLTSGWV
chain 2: KYRRRHRKHSPQHTTTLSLSTLATPKRSGNNNGSEPSDIIIPLRTADSVFCPHYEKVSGDYGHPVYIVQEMPPQSPANIYYKV

Variants of B1 are the subject of the experiment. The experiment can be described thus: in vitro binding assay (pulldown on NeutrAvidin beads, Western blot densitometry); purified kindlin2; n = 3; read off a plot. A general note: Immunoblotting shows a protein as a band on a membrane.
As for chain 2 N78A, chain 2 Y81A, the percent of parent was roughly 36 % WT.
In the case of chain 2 S75A it was roughly 105 % WT; in that of chain 2 Y81A, roughly 61 % WT.
To chain 2 N78A, chain 2 I79A, chain 2 Y80A, chain 2 Y81A belongs roughly 14 % WT.
In the case of chain 2 N78A it was roughly 107 % WT.
